Consider 2 molecules from patent publication US12391751B2, “Antibody against advanced glycation end products and use thereof” (Bloom Technology Corporation, priority 2018, dated 2025).

The test system of one assay is mouse retinal tissue. The assay is described as follows: Retinal tissue staining of diabetic mouse and control mouse (Example 36). To be noted: diabetic mice compared with control mice; antibody 1 mg/mL diluted 500-fold; Alexa 594 secondary. The protocol:
A C57BL6/J mouse (CLEA Japan, Inc.) on 13 days of pregnancy was purchased, and child mice were obtained. For diabetic mice, streptozotocin (FUJIFILM Wako Pure Chemical Corp.) was dissolved at 5 mg/mL in saline (Otsuka Pharmaceutical Co., Ltd.) and subcutaneously administered at 300 μL to a male child mouse 2 days after birth. For control mice, saline was subcutaneously administered at 300 μL to a male child mouse 2 days after birth. After living together with the mother mouse for 4 weeks and subsequent weaning, the diabetic mice were raised with HFD32 (CLEA Japan, Inc.) for 8 weeks. The control mice were raised with CE-2 (CLEA Japan Inc.) for 8 weeks.
1.875 mL of Domitor (Nippon Zenyaku Kogyo Co., Ltd.), 2 mL of midazolam (Sandoz K.K.), 2.5 mL of Vetorphale (Meiji Seika Pharma Co., Ltd.), and 18.625 mL of saline were mixed to prepare a three drug-mixed anesthetic. The body weight of each mouse was measured with a scale (TANITA Corp.), and the three drug-mixed anesthetic was intraperitoneally administered at […]. […]
Acetone (FUJIFILM Wako Pure Chemical Corp.) was incubated for 16 hours or longer in a freezer (Fukushima Industries Corp.) set to −30° C. to prepare cold acetone. […] Then, the fluorescence of Alexa 594 in the retina was observed under a confocal laser microscope (Olympus Corp.).

Assay [1] is described as follows: Reactivity of SJ-5 with Lys-hydroxy-triosidine by competitive ELISA (Example 18). It counts as binding. The following applies: immobilized Glycer-AGEs-BSA. The protocol:
A solution of BSA containing AGEs derived from glyceraldehyde (stock solution: 10 mg/mL PBS solution) prepared into 1 μg/mL in a coating solution was added at 100 μL/well to a 96-well microtiter plate (COSTAR) and incubated overnight at 4° C.
Each well after the immobilization treatment was washed three times with a washing solution (300 μL), and a blocking solution (200 μL) was added thereto and left at room temperature for 1 hour.
GAL691 (prepared in Example 16) and Lys-hydroxy-triosidine (prepared in Example 17) were each dissolved in a phosphate buffer solution (0.2 M, pH 7.4) to prepare a 10 mg/mL solution. Sample solutions of 2-fold dilution series from 0.625 to 10 mg/ml (5 points) were further prepared by dilution with a diluting solution. Dilution solutions were also prepared from a blank solution containing no sample in the same way as above. […]
Absorbance was measured at a dominant wavelength of 450 nm and a sub-wavelength of 650 nm with a microplate reader (Cytation 5, BioTek Instrument Inc.), and the absorbance at the sub-wavelength was subtracted from the absorbance at the dominant wavelength. Change in the absorbance of GAL691 and Lys-hydroxy-triosidine was indicated as relative values to the absorbance of the blank solution.
(In general: ELISA stands for enzyme-linked immunosorbent assay.)

B1: PB-1: mouse monoclonal antibody raised against A-peak-BSA; heavy-chain variable region SEQ ID NO 18, light-chain variable region SEQ ID NO 22 (antibody, listed as Mus musculus, V domains shown)
VH: EVRLQQSGPELVKPGTSVKISCKASGYSFTGYYMHWVKQSPVKSLEWIGRIIPYNGATSYNQNFKDKASLTVDKSSRTAYMDLHSLTSEDSAVYYCARSRYYGRAPYYFDYWGQGTTLTVSS
VL: DVVVTQTPLSLPVSLGDQASISCRSSQSIVHSNGNTYLEWYLQKPGQSPKLLIYKVSNRFSGVPDRISGSGSGTDFTLKISRVEAGDLGVYSCFQGSHVPFTFGSGTKLEIK
Regarding B1, the “staining of retinal ganglion cell layer, internal and external granular layers, retinal pigment epithelial cell layer” value with mouse retinal tissue is listed as “bind strongly”.

B2: SJ-5: mouse monoclonal antibody raised against GAL13-MSA; heavy-chain variable region SEQ ID NO 4, light-chain variable region SEQ ID NO 8 (antibody, listed as Mus musculus, V domains shown)
VH: EVMLVESGGRLVKPGGSLKLSCAASGFTFSSYGMSWVRQTPEKRLEWVATISGGGSYTYYPDSVKGRFTISRDNVKNNLYLQMSSLRSEDTALYYCARRGAYGDYGWFAYWGQGTLVTVSA
VL: DIVLTQSPATLSVTPGDSVSLSCRASQSINNNLHWYQQKSHESPRLLIKCASQSISGIPSRFSGSGSGTDFTLSINSVETEDFGMYFCQQSNSWPLTFGAGTKLELK
On to B2, for which the “recognition of Lys-hydroxy-triosidine” value in assay [1] is on record as “does not recognize”.
